Laboratory results: patent publication US20250213647A1, “CHEMOKINE RECEPTORS AND ALPHA1 ADRENERGIC RECEPTORS/VASOPRESSIN RECEPTORS 1A HETEROMERS AS DRUG TARGETS FOR DISEASE” (UNIVERSITY OF SOUTH FLORIDA, priority 2022, published 2025)
Read-outs that look alike come from different tables or passages of the source.

Key:
CCR2 [1] = molecular target: T1, CCR2 (Homo sapiens, UniProt P41597); assay: Gαi activation assay (TRUPATH BRET), HEK293T cells transfected with CCR2 plus pcDNA3 (CCR2 alone); format: cell-based
Method: (§1) HEK293T cells were plated in a 6-well plate and transfected with 0.2 μg each of Gαi1-Rluc8, Gβ3 and Gγ9-GFP2 (Trupath) together with 0.2 μg of mouse or human CCR2 with either pcDNA3.1 or α1b-AR. One day after transfection, cells were trypsinized and replated to 96-well poly-L lysine precoated plates. After overnight incubation, cells were replaced with 0.1% glucose/PBS. Prolume Purple (NanoLight Tech.) or coelenterazine 400a in a final concentration of 5 μM were added in experiments with human or mouse CCR2, respectively, and incubated at room temperature for 3 min. Ligands at various concentrations were added to cells and incubated at room temperature for 5 min before luminescence was measured at 410 nm and 515 nm. […] The BRET changes were calculated by subtracting the BRET signal of untreated cells.

α1b-AR:CCR2 heteromer = molecular target: T2, α1b-AR:CCR2 heteromer (Homo sapiens, UniProt P35368+P41597); assay: Gαi activation assay (TRUPATH BRET), HEK293T cells transfected with CCR2 plus α1b-AR; format: cell-based
T2 construct: expressed in transfected cells; host or cells: HEK293T
Method: as §1

mouse CCR2 = molecular target: T3, mouse CCR2 (Mus musculus, UniProt P51683); assay: Gαi activation assay (TRUPATH BRET), HEK293T cells transfected with mouse CCR2; format: cell-based; settings: FIG. 9A
T3 construct: expressed in transfected cells; host or cells: HEK293T
Method: as §1

[2] = system: THP-1 cells (CCR2-mediated Gαi signaling); assay: Cyclic AMP measurement in forskolin-stimulated THP-1 cells; format: cell-based, human; settings: for % inhibition of cAMP production by CCL2: 100 nM CCL2, FIG. 2F
Method: (§2) Cyclic AMP amounts were measured using the cAMP complete enzyme immunoassay kit, acetylated format (Enzo Life Sciences). 4×10^5 cells were incubated with forskolin/isobutylmethylxanthine (10 μM/0.5 mM final concentrations) in 0.1% BSA/10 mM Hepes-buffered RPMI and treated with CCL2 in the presence or absence of 1 μM PE, 1 μM PT or 100 nM NE at 37° C. for 15 min. The cells were lysed by incubating with 0.1 M HCl at room temperature for 20 min. The cAMP amounts in the lysate supernatant were measured following the manufacturer's instructions.

THP-1_ADRA1B^KO cells = assay: Cyclic AMP measurement in forskolin-stimulated THP-1_ADRA1B^KO cells; format: cell-based, human; settings: forskolin-stimulated THP-1_ADRA1B^KO cells; 100 nM CCL2, 15 min at 37° C.; FIG. 2B
Method: as §2

CCR2 [3] = molecular target: T1, CCR2; assay: BRET assay for β-arrestin recruitment, HEK293T with CCR2-Rluc and β-arrestin-YFP without α1b-AR; format: cell-based; settings: FIG. 5C, read-out: EC50 of CCL2, BRET between CCR2-Rluc and β-arrestin-YFP
Method: (§3) β-arrestin recruitment was measured by BRET, as described (Armando, 2014; Berchiche, 2011). In brief, HEK293T cells were plated in a 6-well plate and transfected with 0.1 μg of CCR2-RluII and 1.9 μg β-arrestin-YFP with 0.1 μg pcDNA3.1 or α1b-AR. One day after transfection, cells were re-plated into 96-well poly-L lysine precoated plates. After overnight incubation, cells were replaced with 0.1% glucose/PBS. Coelenterazine H in a final concentration of 5 μM was added to cells and incubated at room temperature for 3 min. […] The BRET changes were calculated by subtracting the BRET signal of untreated cells.

CCR2 [4] = molecular target: T1, CCR2; settings: higher for CCR2; cited from earlier work
CCR2 [5] = molecular target: T1, CCR2; assay: Radioligand competition binding assay, [125I]-CCL2, crude membrane preparations of THP-1 cells; set-up: host or cells: THP-1; settings: THP-1 cells pretreated with vehicle; mean±SE, n=3; read-out: IC50 of CCL2 to displace [125I]-CCL2
Method: Cells were then centrifuged at 30,000× g (20 min, 4° C.), the supernatant was discarded, and pelleted cell fragments were snap-frozen in liquid nitrogen. The cell pellets were resuspended in 50 mM HEPES, 5 mM MgCl2, 1 mM CaCl2, 0.1% w/v BSA, pH 7.2, and then incubated with 50 pM [^125I]-CCL2, 1× Xpert Protease Inhibitor Cocktail (GenDEPOT), and varying concentrations of CCL2 for 1.5 h at 25° C. Bound [^125I]-CCL2 was collected via vacuum filtration using buffer containing 10 mM HEPES (pH 7.4) and 0.5 M NaCl at 4° C., and a cell harvester (Brandel) equipped with glass fiber filters. Radioactivity was measured in a gamma counter at 70% efficiency.

CCR2:α1b-AR heteromers [6] = molecular target: T4, CCR2:α1b-AR heteromers (Homo sapiens, UniProt P35368+P41597); assay: BRET assay for β-arrestin recruitment, HEK293T co-expressing CCR2-Rluc, β-arrestin-YFP and α1b-AR; format: cell-based; set-up: expressed in transfected cells; settings: CCL2 plus vehicle; FIG. 5D
Method: as §3

CCR2:α1b-AR heteromers [7] = molecular target: T4, CCR2:α1b-AR heteromers; assay: PRESTO-Tango β-arrestin recruitment assay, HTLA cells with CCR2-Tango plus α1b-AR; format: cell-based; set-up: Tango module of the TANGO vector (C); expressed in transfected cells; host or cells: HTLA
Method: The assays were performed as described previously (Albee, 2017; Gao, 2022; Albee, 2018; Eby, 2017; Cheng, 2017). HTLA cells were seeded in a 6-well plate and transfected with 750 ng FLAG-CCR2-Tango together with 750 ng pcDNA3.1 or HA-α1b-AR using TransIT-2020 Transfection Reagent. The next day, cells (75,000 cells/well) were plated onto poly-L-Lysine pre-coated 96-well plates and allowed to attach to the plate surface for at least 4 hours prior to treatment. Cells were treated with receptor ligands at the concentrations indicated in the figure legends for 2 h and then replaced with fresh full medium and incubated overnight at 37° C., 5% CO2 in a humidified environment. The following morning, medium was replaced with a 100 μL 1:10 mixture of Bright-Glo (Promega) and PBS. Plates were then incubated at room temperature for 10 min before measuring luminescence on a Biotek Synergy II plate reader. Relative luminescence units (RLU) are expressed as fold changes of RLU vs unstimulated cells.

T1 sequence (P41597 whole entry): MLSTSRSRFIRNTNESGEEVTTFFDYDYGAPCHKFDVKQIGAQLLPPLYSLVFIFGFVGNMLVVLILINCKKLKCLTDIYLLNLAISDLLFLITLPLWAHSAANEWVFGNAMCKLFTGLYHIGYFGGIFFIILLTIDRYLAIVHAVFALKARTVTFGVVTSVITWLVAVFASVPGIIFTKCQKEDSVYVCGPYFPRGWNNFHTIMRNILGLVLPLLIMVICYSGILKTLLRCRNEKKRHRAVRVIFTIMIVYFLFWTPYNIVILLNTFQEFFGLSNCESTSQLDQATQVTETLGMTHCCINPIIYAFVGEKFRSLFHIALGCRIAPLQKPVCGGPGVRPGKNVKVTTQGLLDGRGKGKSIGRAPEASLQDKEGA
T4 sequence (P41597 whole entry): as above
T4 sequence (P35368 whole entry): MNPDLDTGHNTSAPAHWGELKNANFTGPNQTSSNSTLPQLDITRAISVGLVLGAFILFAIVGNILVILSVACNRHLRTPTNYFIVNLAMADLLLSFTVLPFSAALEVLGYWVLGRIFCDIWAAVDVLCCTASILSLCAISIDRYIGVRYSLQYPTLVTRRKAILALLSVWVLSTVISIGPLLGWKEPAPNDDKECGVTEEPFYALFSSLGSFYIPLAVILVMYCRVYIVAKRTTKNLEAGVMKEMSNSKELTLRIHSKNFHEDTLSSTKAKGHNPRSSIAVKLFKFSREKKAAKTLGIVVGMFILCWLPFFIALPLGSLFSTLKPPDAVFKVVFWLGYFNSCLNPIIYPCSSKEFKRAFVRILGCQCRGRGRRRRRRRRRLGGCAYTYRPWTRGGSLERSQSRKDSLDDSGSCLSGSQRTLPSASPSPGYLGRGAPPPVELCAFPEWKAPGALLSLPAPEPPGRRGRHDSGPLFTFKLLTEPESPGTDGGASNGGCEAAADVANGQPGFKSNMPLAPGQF
T2 sequence (P41597 whole entry): as the sequence (P41597 whole entry) above
T2 sequence (P35368 whole entry): as the sequence (P35368 whole entry) above
T3 sequence (P51683 whole entry): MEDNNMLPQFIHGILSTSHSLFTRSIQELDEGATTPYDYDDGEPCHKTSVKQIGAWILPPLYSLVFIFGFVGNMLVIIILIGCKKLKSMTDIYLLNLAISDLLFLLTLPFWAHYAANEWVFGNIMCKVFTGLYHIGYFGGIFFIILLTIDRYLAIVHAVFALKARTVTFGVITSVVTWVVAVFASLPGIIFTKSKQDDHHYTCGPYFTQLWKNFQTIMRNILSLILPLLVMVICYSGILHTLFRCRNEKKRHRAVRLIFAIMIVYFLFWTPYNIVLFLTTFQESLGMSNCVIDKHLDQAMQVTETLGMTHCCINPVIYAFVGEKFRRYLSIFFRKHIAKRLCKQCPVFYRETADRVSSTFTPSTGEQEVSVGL

With “CCL2: chemokine (C-C motif) ligand 2, cognate agonist of CCR2, CCR3 and CCR5” the “bottom plateau (BRET change), Gαi1 activation by CCL2” value (CCR2 [1]; cells transfected with CCR2 alone, FIG. 1B) was −0.03±0.001, the EC50 (CCR2 [1]; cells transfected with CCR2 alone, FIG. 1B, read-out: EC50 of CCL2, Gαi1 activation) was 3.31 nM and the “bottom plateau, Gαi1 activation by human CCL2” value (CCR2 [1]; human CCR2, FIG. 9A) was −0.058±0.004. For the same substance, the EC50 (CCR2 [1]; human CCR2, FIG. 9A, read-out: EC50 of human CCL2, Gαi1 activation) was 1.4 ± 0.8 nM, the “bottom plateau, CCL2-induced Gαi activation” value (α1b-AR:CCR2 heteromer; CCL2 plus vehicle, FIG. 4C) was −0.04±0.002 and the EC50 (α1b-AR:CCR2 heteromer; CCL2 plus vehicle, FIG. 4C, read-out: EC50 of CCL2 to induce Gαi activation) was 0.9 ± 0.25 nM. For the same substance, the “bottom plateau, CCL2-induced Gαi activation” value (α1b-AR:CCR2 heteromer; CCL2 plus vehicle, FIG. 4D) was −0.04±0.002, the EC50 (α1b-AR:CCR2 heteromer; CCL2 plus vehicle, FIG. 4D, read-out: EC50 of CCL2 to induce Gαi activation) was 1.3 ± 0.4 nM and the “bottom plateau, CCL2-induced Gαi activation” value (α1b-AR:CCR2 heteromer; CCL2 plus vehicle, FIG. 4F) was −0.042±0.002. For the same substance, the EC50 (α1b-AR:CCR2 heteromer; CCL2 plus vehicle, FIG. 4F, read-out: EC50 of CCL2 to induce Gαi activation) was 1.5 ± 0.5 nM, the “bottom plateau (BRET change), Gαi1 activation by CCL2” value (α1b-AR:CCR2 heteromer; cells transfected with CCR2 plus α1b-AR, FIG. 1B) was −0.037±0.001 and the EC50 (α1b-AR:CCR2 heteromer; cells transfected with CCR2 plus α1b-AR, FIG. 1B, read-out: EC50 of CCL2, Gαi1 activation) was 0.94 ± 0.2 nM. For the same substance, the “bottom plateau, Gαi1 activation by human CCL2” value (mouse CCR2) was −0.073±0.009, the EC50 (mouse CCR2; read-out: EC50 of human CCL2, Gαi1 activation) was 3.5 ± 3.1 nM and the “% inhibition of cAMP production by CCL2” value ([2]; THP-1 cells incubated with non-targeting siRNA) was 66±5%. The “% inhibition of cAMP production by CCL2” value ([2]; THP-1 cells incubated with α1B-AR siRNA) was 46±4%, the “reduction of cAMP levels by CCL2” value ([2]; forskolin-stimulated THP-1 cells, 100 nM CCL2, 15 min at 37° C., FIG. 2B) was 56±6% and the “inhibition of cAMP production by CCL2” value (THP-1_ADRA1B^KO cells) was 30±4%. For the same substance, the EC50 (CCR2 [3]) was 3.5 ± 0.9 nM, the “binding affinity of CCL2 for CCR2 relative to CCR3 and CCR5” value (CCR2 [4]) was “approximately 100 fold” and the IC50 (CCR2 [5]) was 0.167 ± 0.023 nM. For the same substance, the EC50 (CCR2:α1b-AR heteromers [6]) was 3.7 ± 0.5 nM, the “Top plateau, β-arrestin recruitment BRET” value (CCR2:α1b-AR heteromers [6]) was 0.06±0.001 and the EC50 (CCR2:α1b-AR heteromers [7]; CCL2 alone, FIG. 5B) was 1.6 ± 1.3 nM. For the same substance, the “efficacy to induce β-arrestin recruitment to CCR2” value (CCR2:α1b-AR heteromers [7]; agonist alone) was 43±5 fold change RLU and the “efficacy of CCL2 relative to phenylephrine to recruit β-arrestin to CCR2” value (CCR2:α1b-AR heteromers [7]; higher) was 18 fold.
